From patent publication US8771694 (IMMUNOMEDICS, dated 2014)

Biological target: T1, CD22 (LL2 antigen on the surface of Raji cells) (UniProt P20273 20-847, limits assumed)
T1 construct: whole, on cells; All assays used whole Raji cells; also called Raji cell surface antigen; B-lymphoma cells
T1 sequence (looked up): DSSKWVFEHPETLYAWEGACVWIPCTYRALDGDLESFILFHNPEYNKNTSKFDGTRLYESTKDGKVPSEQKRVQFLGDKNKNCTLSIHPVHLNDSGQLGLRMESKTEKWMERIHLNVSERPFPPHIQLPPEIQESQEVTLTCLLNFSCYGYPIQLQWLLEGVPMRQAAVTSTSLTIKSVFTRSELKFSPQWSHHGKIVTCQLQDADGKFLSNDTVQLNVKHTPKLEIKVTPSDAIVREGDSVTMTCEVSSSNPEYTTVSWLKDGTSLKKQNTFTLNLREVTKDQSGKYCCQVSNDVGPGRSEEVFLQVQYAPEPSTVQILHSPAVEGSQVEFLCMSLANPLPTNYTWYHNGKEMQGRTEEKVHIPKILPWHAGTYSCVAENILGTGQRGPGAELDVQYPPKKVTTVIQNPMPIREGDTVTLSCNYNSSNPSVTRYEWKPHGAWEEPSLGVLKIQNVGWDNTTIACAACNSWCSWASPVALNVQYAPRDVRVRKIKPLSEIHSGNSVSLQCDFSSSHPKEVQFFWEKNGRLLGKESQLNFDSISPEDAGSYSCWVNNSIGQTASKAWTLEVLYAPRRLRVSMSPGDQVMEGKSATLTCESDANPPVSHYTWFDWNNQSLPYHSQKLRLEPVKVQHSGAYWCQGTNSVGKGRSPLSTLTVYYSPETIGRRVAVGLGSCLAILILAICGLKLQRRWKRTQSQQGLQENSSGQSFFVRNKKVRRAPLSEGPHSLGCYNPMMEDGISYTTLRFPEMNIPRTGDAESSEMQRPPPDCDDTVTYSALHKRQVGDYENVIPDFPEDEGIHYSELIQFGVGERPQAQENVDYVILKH
Test: competition flow cytometry on Raji cells, competitor mLL2 F(ab')2
Experimental: The Raji cell surface antigen binding affinities of mix-and-match and fully humanized antibodies can be compared to that of cLL2 using various concentrations of mLL2 F(ab')_2 fragments devoid of the Fc portion as competitors, as evaluated by flow cytometry assay. Residual surface-bound LL2 antibodies carrying the human Fc portions (cLL2 and mix-and-match LL2) can be detected by a FITC-labeled anti-human Fc specific antibody in a flow cytometry assay.
Briefly, 1 µg of cLL2, mix-and-match LL2, hLL2-1 or hLL2-2 antibodies were incubated with […] Raji cells in the presence of varying concentrations of mLL2 F(ab')_2 fragments (as competitor) in a final volume of 100 µl of PBS buffer supplemented with 1% FCS and 0.01% sodium azide. The mixture was incubated for 30 minutes at 4° C., and washed three times with PBS to remove unbound antibodies. By taking advantage of the presence of human Fc portions in the antibodies, the binding levels of the antibodies were assessed by adding a 20×diluted FITC-labeled goat anti-human IgG1, Fc fragment-specific antibodies (Jackson ImmunoResearch, West Grove, Pa.). The cells were washed three times with PBS, and fluorescence intensities measured by a FACSCAN fluorescence activated cell sorter (Becton-Dickinson, Bedford, Mass.).

B1: humanized LL2 version 1 (antibody, human IgG1, V domains shown)
VH: QVQLQQSGAEVKKPGSSVKVSCKASGYTFTSYWLHWVRQAPGQGLEWIGYINPRNDYTEYNQNFKDKATITADESTNTAYMELSSLRSEDTAFYFCARRDITTFYWGQGTTVTVSS
VL: DIQLTQSPSSLSASVGDRVTMSCKSSQSVLYSANHKNYLAWYQQKPGKAPKLLIYWASTRESGVPSRFSGSGSGTDFTFTISSLQPEDIATYYCHQYLSSWTFGGGTKVQIKR
notes: VH has Q at Kabat position 5; also called hLL2-1; hLL2 with seven murine FR residues in the VH domain
B1: binds.

B2: humanized LL2 version 2 (antibody, human IgG1, V domains shown)
VH: QVQLVQSGAEVKKPGSSVKVSCKASGYTFTSYWLHWVRQAPGQGLEWIGYINPRNDYTEYNQNFKDKATITADESTNTAYMELSSLRSEDTAFYFCARRDITTFYWGQGTTVTVSS
VL: DIQLTQSPSSLSASVGDRVTMSCKSSQSVLYSANHKNYLAWYQQKPGKAPKLLIYWASTRESGVPSRFSGSGSGTDFTFTISSLQPEDIATYYCHQYLSSWTFGGGTKVQIKR
notes: VH has V at Kabat position 5; also called hLL2-2; hLL2
B2: binds.
